# Test results taken from patent US20200121803A1 (published 2020).
# T1: human CD98, endogenously expressed on Molt-4 human acute lymphoblastic leukemia cells (human)
# T1 chain: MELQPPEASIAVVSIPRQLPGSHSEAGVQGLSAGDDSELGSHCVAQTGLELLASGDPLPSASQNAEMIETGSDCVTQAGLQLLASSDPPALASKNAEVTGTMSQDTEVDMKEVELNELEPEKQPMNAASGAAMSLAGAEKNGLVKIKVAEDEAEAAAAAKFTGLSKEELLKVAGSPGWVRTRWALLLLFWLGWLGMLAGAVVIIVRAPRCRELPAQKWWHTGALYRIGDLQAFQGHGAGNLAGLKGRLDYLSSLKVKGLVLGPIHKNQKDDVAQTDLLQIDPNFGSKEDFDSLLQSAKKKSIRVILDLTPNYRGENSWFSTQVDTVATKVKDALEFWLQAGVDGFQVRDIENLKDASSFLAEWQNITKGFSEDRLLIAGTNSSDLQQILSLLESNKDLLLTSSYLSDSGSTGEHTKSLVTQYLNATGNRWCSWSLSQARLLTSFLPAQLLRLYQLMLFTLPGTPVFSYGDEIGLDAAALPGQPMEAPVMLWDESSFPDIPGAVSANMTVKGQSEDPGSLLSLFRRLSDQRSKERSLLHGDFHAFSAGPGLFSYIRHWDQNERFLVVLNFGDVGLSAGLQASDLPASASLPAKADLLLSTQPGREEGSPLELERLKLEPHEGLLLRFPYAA
# Target: T1, human CD98, endogenously expressed on …
# Experiment: cell-based or functional assay
Binder,Molt4 IC50,% Cell Viability at 50 nM
"CD98 (CL-huAb102)-ZZ (antibody, human IgG1, kappa, L234A L235A, V domains shown, synthon ZZ on reduced interchain cysteines (sites not given)) VH: EVQLVESGGGLVQPGGSLRLSCATSGFTFIDYYMSWVRQAPGKGLEWLGFIRNKANRYTTEYSASVKGRFTISRDNSKSILYLQMNSLKTEDTAVYYCTRDRPAWFVYWGQGTLVTVSS VL: DIVMTQTPLSLPVTPGEPASISCKSSQSLLYSSNQKNYLAWYLQKPGQSPQLLIYWASTRESGVPDRFSGSGSGTDFTLKISRVEAEDVGVYYCQQYYSYPYTFGGGTKVEIKR",0.072 nM,6.3%
"CD98 (CL-huAb102)-WD (antibody, human IgG1, kappa, L234A L235A, V domains shown, synthon WD on reduced interchain cysteines (sites not given)) VH: EVQLVESGGGLVQPGGSLRLSCATSGFTFIDYYMSWVRQAPGKGLEWLGFIRNKANRYTTEYSASVKGRFTISRDNSKSILYLQMNSLKTEDTAVYYCTRDRPAWFVYWGQGTLVTVSS VL: DIVMTQTPLSLPVTPGEPASISCKSSQSLLYSSNQKNYLAWYLQKPGQSPQLLIYWASTRESGVPDRFSGSGSGTDFTLKISRVEAEDVGVYYCQQYYSYPYTFGGGTKVEIKR",0.109 nM,14.3%
"CD98 (CL-huAb102)-ZT (antibody, human IgG1, kappa, L234A L235A, V domains shown, synthon ZT on reduced interchain cysteines (sites not given)) VH: EVQLVESGGGLVQPGGSLRLSCATSGFTFIDYYMSWVRQAPGKGLEWLGFIRNKANRYTTEYSASVKGRFTISRDNSKSILYLQMNSLKTEDTAVYYCTRDRPAWFVYWGQGTLVTVSS VL: DIVMTQTPLSLPVTPGEPASISCKSSQSLLYSSNQKNYLAWYLQKPGQSPQLLIYWASTRESGVPDRFSGSGSGTDFTLKISRVEAEDVGVYYCQQYYSYPYTFGGGTKVEIKR",0.04 nM,3.4%
"CD98 (CL-huAb104)-WD (antibody, human IgG1, kappa, L234A L235A, V domains shown, synthon WD on reduced interchain cysteines (sites not given)) VH: EVQLVESGGGLVQPGGSLRLSCATSGFTFIDYYMSWVRQAPGKGLEWLGFIRNKAYGYTTEYSASVKGRFTISRDNSKSILYLQMNSLKTEDTAVYYCTRDRPAWFVYWGQGTLVTVSS VL: DIVMTQTPLSLPVTPGEPASISCKSSQSLLYSSNQKNYLAWYLQKPGQSPQLLIYWASTRESGVPDRFSGSGSGTDFTLKISRVEAEDVGVYYCQQYYSYPYTFGGGTKVEIKR",0.067 nM,16.4%
"CD98 (CL-huAb102)-CZ (antibody, human IgG1, kappa, L234A L235A, V domains shown, synthon CZ on reduced interchain cysteines (sites not given)) VH: EVQLVESGGGLVQPGGSLRLSCATSGFTFIDYYMSWVRQAPGKGLEWLGFIRNKANRYTTEYSASVKGRFTISRDNSKSILYLQMNSLKTEDTAVYYCTRDRPAWFVYWGQGTLVTVSS VL: DIVMTQTPLSLPVTPGEPASISCKSSQSLLYSSNQKNYLAWYLQKPGQSPQLLIYWASTRESGVPDRFSGSGSGTDFTLKISRVEAEDVGVYYCQQYYSYPYTFGGGTKVEIKR",0.015 nM,1%
"CD98 (CL-huAb104)-ZT (antibody, human IgG1, kappa, L234A L235A, V domains shown, synthon ZT on reduced interchain cysteines (sites not given)) VH: EVQLVESGGGLVQPGGSLRLSCATSGFTFIDYYMSWVRQAPGKGLEWLGFIRNKAYGYTTEYSASVKGRFTISRDNSKSILYLQMNSLKTEDTAVYYCTRDRPAWFVYWGQGTLVTVSS VL: DIVMTQTPLSLPVTPGEPASISCKSSQSLLYSSNQKNYLAWYLQKPGQSPQLLIYWASTRESGVPDRFSGSGSGTDFTLKISRVEAEDVGVYYCQQYYSYPYTFGGGTKVEIKR",0.042 nM,3.3%
"CD98 (CL-huAb104)-CZ (antibody, human IgG1, kappa, L234A L235A, V domains shown, synthon CZ on reduced interchain cysteines (sites not given)) VH: EVQLVESGGGLVQPGGSLRLSCATSGFTFIDYYMSWVRQAPGKGLEWLGFIRNKAYGYTTEYSASVKGRFTISRDNSKSILYLQMNSLKTEDTAVYYCTRDRPAWFVYWGQGTLVTVSS VL: DIVMTQTPLSLPVTPGEPASISCKSSQSLLYSSNQKNYLAWYLQKPGQSPQLLIYWASTRESGVPDRFSGSGSGTDFTLKISRVEAEDVGVYYCQQYYSYPYTFGGGTKVEIKR",0.023 nM,0.9%

# More lines, main results first:
Molt4 IC50,Binder,% Cell Viability at 50 nM
0.208 nM,"CD98 (CL-huAb110)- LB (antibody, human IgG1, kappa, L234A L235A, V domains shown, synthon LB on reduced interchain cysteines (sites not given)) VH: EVQLVQSGAEVKKPGASVKVSCKASGFTFSDYTMAWVRQAPGQGLEWVATIIYDARGTYYRDAVKGRFTITRDNSTSTLYLELSSLRSEDTAVYYCARQSDDTYYYWGYFDYWGQGTMVTVSS VL: DIVMTQTPLSLPVTPGEPASINCKSSQSLLFSGNQKNYLAWYLQKPGQSPQLLIYWASTRQSGVPDRFSGSGSGTDFTLKISRVEAEDVGIYYCQQYYSSPYTFGQGTKLEIKR",1.9%
0.144 nM,"CD98 (CL-huAb108)-ZT (antibody, human IgG1, kappa, L234A L235A, V domains shown, synthon ZT on reduced interchain cysteines (sites not given)) VH: EVQLVQSGAEVKKPGASVKVSCKASGFTFSDYTMAWVRQAPGQGLEWVATIIYSGRGTYYRDAVKGRFTITRDNSTSTLYLELSSLRSEDTAVYYCARQSDDTYYYWGYFDYWGQGTMVTVSS VL: DIVMTQTPLSLPVTPGEPASINCKSSQSLLFSGNQKNYLAWYLQKPGQSPQLLIYWASTRQSGVPDRFSGSGSGTDFTLKISRVEAEDVGIYYCQQYYDVPYTFGQGTKLEIKR",4.5%
0.156 nM,"CD98 (CL-huAb110)-ZT (antibody, human IgG1, kappa, L234A L235A, V domains shown, synthon ZT on reduced interchain cysteines (sites not given)) VH: EVQLVQSGAEVKKPGASVKVSCKASGFTFSDYTMAWVRQAPGQGLEWVATIIYDARGTYYRDAVKGRFTITRDNSTSTLYLELSSLRSEDTAVYYCARQSDDTYYYWGYFDYWGQGTMVTVSS VL: DIVMTQTPLSLPVTPGEPASINCKSSQSLLFSGNQKNYLAWYLQKPGQSPQLLIYWASTRQSGVPDRFSGSGSGTDFTLKISRVEAEDVGIYYCQQYYSSPYTFGQGTKLEIKR",3.5%
0.068 nM,"CD98 (CL-huAb108)-CZ (antibody, human IgG1, kappa, L234A L235A, V domains shown, synthon CZ on reduced interchain cysteines (sites not given)) VH: EVQLVQSGAEVKKPGASVKVSCKASGFTFSDYTMAWVRQAPGQGLEWVATIIYSGRGTYYRDAVKGRFTITRDNSTSTLYLELSSLRSEDTAVYYCARQSDDTYYYWGYFDYWGQGTMVTVSS VL: DIVMTQTPLSLPVTPGEPASINCKSSQSLLFSGNQKNYLAWYLQKPGQSPQLLIYWASTRQSGVPDRFSGSGSGTDFTLKISRVEAEDVGIYYCQQYYDVPYTFGQGTKLEIKR",1.1%
0.226 nM,"CD98 (CL-huAb110)-WD (antibody, human IgG1, kappa, L234A L235A, V domains shown, synthon WD on reduced interchain cysteines (sites not given)) VH: EVQLVQSGAEVKKPGASVKVSCKASGFTFSDYTMAWVRQAPGQGLEWVATIIYDARGTYYRDAVKGRFTITRDNSTSTLYLELSSLRSEDTAVYYCARQSDDTYYYWGYFDYWGQGTMVTVSS VL: DIVMTQTPLSLPVTPGEPASINCKSSQSLLFSGNQKNYLAWYLQKPGQSPQLLIYWASTRQSGVPDRFSGSGSGTDFTLKISRVEAEDVGIYYCQQYYSSPYTFGQGTKLEIKR",10.7%
0.061 nM,"CD98 (CL-huAb104)-ZZ (antibody, human IgG1, kappa, L234A L235A, V domains shown, synthon ZZ on reduced interchain cysteines (sites not given)) VH: EVQLVESGGGLVQPGGSLRLSCATSGFTFIDYYMSWVRQAPGKGLEWLGFIRNKAYGYTTEYSASVKGRFTISRDNSKSILYLQMNSLKTEDTAVYYCTRDRPAWFVYWGQGTLVTVSS VL: DIVMTQTPLSLPVTPGEPASISCKSSQSLLYSSNQKNYLAWYLQKPGQSPQLLIYWASTRESGVPDRFSGSGSGTDFTLKISRVEAEDVGVYYCQQYYSYPYTFGGGTKVEIKR",6.5%
0.199 nM,"CD98 (CL-huAb108-ZZ (antibody, human IgG1, kappa, L234A L235A, V domains shown, synthon ZZ on reduced interchain cysteines (sites not given)) VH: EVQLVQSGAEVKKPGASVKVSCKASGFTFSDYTMAWVRQAPGQGLEWVATIIYSGRGTYYRDAVKGRFTITRDNSTSTLYLELSSLRSEDTAVYYCARQSDDTYYYWGYFDYWGQGTMVTVSS VL: DIVMTQTPLSLPVTPGEPASINCKSSQSLLFSGNQKNYLAWYLQKPGQSPQLLIYWASTRQSGVPDRFSGSGSGTDFTLKISRVEAEDVGIYYCQQYYDVPYTFGQGTKLEIKR",5.8%
